Test results from PMC11347159, “MUT-7 exoribonuclease activity and localization are mediated by an ancient domain” (Nucleic Acids Research, 2023).
Values belong to the binder of their own block, whether it stands above or below them.

Legend:
MUT-7 FL = target: T1, MUT-7 FL (Caenorhabditis elegans, UniProt P34607 1-910); assay: fluorescence polarization; 5 mM EDTA, 150 mM NaCl; Hill h 1.195; FP, 50 nM RNA, 30 min, room temperature; C. elegans proteins: 20 mM HEPES/NaOH pH 7.5, 150 mM NaCl, 10% glycerol, 5 mM EDTA; human proteins: 20 mM HEPES/NaOH pH 7.5, 250 mM NaCl; settings: protein: recombinant; tags: His10-MBP-3C (N), 3C cleavage in purification; label: 5'-FAM; single strand
T1 sequence: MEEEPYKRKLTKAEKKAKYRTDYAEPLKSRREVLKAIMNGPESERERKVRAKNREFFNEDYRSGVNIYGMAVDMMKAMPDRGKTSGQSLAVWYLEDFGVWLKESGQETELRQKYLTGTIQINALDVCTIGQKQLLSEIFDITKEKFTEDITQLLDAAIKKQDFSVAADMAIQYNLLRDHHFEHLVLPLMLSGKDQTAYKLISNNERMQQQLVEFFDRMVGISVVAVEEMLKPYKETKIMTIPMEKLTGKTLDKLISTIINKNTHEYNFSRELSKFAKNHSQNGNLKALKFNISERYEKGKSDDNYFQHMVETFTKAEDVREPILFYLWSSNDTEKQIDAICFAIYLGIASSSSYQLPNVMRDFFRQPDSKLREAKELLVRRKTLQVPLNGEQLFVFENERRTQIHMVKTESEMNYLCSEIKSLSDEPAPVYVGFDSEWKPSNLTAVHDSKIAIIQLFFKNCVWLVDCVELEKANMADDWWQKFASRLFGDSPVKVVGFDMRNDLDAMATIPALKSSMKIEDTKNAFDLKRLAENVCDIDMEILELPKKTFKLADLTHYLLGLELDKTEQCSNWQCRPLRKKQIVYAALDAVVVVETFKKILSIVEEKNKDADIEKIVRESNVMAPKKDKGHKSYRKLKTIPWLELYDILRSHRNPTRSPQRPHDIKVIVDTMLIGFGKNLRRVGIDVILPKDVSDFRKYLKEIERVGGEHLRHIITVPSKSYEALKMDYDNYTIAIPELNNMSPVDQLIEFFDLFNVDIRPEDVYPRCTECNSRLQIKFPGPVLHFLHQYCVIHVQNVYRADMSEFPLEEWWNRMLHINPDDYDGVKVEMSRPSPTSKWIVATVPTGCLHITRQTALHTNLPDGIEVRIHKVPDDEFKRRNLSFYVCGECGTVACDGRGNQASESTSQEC

EXD3 NTD-EXO(D399A) = target: T2, EXD3 NTD-EXO(D399A) (Homo sapiens, UniProt Q8N9H8 1-582, D399A); assay: fluorescence polarization; 250 mM NaCl; Hill h 1.1; FP, 50 nM RNA, 30 min, room temperature; C. elegans proteins: 20 mM HEPES/NaOH pH 7.5, 150 mM NaCl, 10% glycerol, 5 mM EDTA; human proteins: 20 mM HEPES/NaOH pH 7.5, 250 mM NaCl; settings: protein: recombinant; label: 5'-FAM; single strand
T2 sequence: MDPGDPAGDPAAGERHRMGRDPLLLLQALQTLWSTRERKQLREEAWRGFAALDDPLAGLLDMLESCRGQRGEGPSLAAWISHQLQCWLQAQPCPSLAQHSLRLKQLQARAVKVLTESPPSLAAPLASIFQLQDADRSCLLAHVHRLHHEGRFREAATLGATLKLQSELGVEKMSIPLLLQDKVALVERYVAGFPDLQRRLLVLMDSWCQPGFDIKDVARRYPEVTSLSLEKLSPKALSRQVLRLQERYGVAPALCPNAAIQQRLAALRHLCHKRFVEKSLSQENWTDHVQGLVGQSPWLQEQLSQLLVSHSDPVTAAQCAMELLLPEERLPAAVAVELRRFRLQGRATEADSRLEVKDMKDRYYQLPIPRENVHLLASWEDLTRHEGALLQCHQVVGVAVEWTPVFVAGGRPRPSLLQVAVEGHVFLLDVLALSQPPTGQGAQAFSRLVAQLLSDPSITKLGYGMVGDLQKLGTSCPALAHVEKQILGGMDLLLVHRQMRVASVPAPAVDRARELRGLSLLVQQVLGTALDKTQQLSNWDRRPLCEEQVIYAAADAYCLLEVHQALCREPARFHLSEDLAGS

EXD3 FL(D399A) = target: T3, EXD3 FL(D399A) (Homo sapiens, UniProt Q8N9H8 1-876, D399A); assay: fluorescence polarization; 250 mM NaCl; Hill h 1.029; FP, 50 nM RNA, 30 min, room temperature; C. elegans proteins: 20 mM HEPES/NaOH pH 7.5, 150 mM NaCl, 10% glycerol, 5 mM EDTA; human proteins: 20 mM HEPES/NaOH pH 7.5, 250 mM NaCl; settings: protein: recombinant; label: 5'-FAM; single strand
T3 sequence: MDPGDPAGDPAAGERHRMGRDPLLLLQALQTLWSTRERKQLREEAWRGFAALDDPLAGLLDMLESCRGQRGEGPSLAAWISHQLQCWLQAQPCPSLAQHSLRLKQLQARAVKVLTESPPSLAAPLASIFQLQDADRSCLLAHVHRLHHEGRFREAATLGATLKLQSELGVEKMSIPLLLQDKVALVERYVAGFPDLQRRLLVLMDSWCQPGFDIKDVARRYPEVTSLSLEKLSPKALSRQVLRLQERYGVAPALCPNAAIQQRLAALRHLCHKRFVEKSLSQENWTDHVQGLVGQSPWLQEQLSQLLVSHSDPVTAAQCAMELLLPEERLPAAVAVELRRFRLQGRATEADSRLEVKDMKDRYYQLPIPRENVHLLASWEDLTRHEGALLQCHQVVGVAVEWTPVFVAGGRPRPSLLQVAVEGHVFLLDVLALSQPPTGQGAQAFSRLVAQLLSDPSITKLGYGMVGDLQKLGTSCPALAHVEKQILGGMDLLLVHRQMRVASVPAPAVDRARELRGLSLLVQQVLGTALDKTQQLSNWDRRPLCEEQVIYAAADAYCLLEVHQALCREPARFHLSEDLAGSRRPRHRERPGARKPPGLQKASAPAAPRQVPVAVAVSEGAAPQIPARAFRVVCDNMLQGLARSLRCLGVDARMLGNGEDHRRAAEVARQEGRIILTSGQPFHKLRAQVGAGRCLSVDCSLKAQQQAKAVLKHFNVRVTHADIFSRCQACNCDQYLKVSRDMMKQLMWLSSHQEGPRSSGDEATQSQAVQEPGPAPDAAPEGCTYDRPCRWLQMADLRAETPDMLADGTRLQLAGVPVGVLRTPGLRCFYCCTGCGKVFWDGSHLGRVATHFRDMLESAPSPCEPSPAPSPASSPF

MUT-7 NTD-EXO = target: T4, MUT-7 NTD-EXO (Caenorhabditis elegans, UniProt P34607 1-625); assay: fluorescence polarization; 5 mM EDTA, 150 mM NaCl; Hill h 1.491; FP, 50 nM RNA, 30 min, room temperature; C. elegans proteins: 20 mM HEPES/NaOH pH 7.5, 150 mM NaCl, 10% glycerol, 5 mM EDTA; human proteins: 20 mM HEPES/NaOH pH 7.5, 250 mM NaCl; settings: protein: recombinant; label: 5'-FAM; single strand
T4 sequence: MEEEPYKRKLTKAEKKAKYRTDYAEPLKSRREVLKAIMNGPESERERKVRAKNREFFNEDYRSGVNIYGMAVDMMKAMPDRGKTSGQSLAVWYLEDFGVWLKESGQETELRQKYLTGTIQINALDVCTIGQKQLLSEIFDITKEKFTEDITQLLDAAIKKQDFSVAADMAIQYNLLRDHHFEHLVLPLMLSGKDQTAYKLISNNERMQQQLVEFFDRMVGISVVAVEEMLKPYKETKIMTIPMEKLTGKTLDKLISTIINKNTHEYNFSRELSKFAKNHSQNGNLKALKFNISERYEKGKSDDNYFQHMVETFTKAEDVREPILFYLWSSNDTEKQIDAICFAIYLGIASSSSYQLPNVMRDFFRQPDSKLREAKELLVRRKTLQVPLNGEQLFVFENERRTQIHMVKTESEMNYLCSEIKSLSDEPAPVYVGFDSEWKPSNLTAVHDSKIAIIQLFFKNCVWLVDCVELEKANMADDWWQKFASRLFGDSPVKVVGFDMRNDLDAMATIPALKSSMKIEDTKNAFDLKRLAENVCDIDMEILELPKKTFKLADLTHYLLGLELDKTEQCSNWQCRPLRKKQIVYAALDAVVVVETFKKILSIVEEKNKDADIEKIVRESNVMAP

[1] = target: T5, MUT-7^FL/MUT-8^FL complex (Caenorhabditis elegans, UniProt P34607 1-910; Q19672 1-578); assay: pull-down; purified proteins (5 μM) pre-incubated 30 min at 4°C in 20 mM HEPES/NaOH pH 7.5, 150 mM NaCl, 10% glycerol, 0.05% IGEPAL, 2 mM DTT; GST-tagged MUT-16 constructs held on glutathione resin; SDS-PAGE, Coomassie; settings: both partners purified
T5 construct: C. elegans exonuclease MUT-7, residues 1-910 (full length); C. elegans MUT-8 (RDE-2), residues 1-578 (full length); Complex formed beforehand by co-expression; also called full-length MUT-7/MUT-8; MUT-7/MUT-8; source: E. coli BL21(DE3) derivative, co-expressed, purified through several chromatographic steps
T5 sequence (looked up) 1: T1 sequence
T5 sequence (looked up) 2: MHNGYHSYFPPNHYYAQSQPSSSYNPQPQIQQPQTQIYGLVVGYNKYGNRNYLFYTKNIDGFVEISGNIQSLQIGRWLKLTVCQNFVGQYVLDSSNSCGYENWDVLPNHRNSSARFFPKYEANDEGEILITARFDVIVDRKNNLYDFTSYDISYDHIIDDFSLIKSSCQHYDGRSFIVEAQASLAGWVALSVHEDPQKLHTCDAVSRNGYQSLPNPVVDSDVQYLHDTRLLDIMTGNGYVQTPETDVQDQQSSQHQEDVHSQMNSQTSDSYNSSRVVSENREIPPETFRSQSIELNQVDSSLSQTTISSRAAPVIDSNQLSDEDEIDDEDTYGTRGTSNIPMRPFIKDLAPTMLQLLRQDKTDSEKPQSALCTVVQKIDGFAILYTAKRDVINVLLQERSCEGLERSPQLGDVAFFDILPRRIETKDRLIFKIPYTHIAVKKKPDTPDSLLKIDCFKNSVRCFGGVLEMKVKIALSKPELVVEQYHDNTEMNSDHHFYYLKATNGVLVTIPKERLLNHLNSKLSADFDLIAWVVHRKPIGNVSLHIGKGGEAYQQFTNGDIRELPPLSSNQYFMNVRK

[2] = target: T6, MUT-8^NTD (1–235), purified (Caenorhabditis elegans, UniProt Q19672 1-235); assay: ITC; isothermal titration calorimetry of MUT-8^NTD and MUT-16^584–724; settings: both partners purified
T6 construct: C. elegans MUT-8 N-terminal domain, residues 1-235
T6 sequence (looked up): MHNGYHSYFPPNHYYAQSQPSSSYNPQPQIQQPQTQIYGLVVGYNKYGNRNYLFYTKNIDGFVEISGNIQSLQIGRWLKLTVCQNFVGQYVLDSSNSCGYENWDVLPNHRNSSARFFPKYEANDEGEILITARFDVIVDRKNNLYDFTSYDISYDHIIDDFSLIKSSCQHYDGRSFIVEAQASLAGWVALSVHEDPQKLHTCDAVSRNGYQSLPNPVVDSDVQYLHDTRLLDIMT

Binder: GUUGAUUGAAGAGUUC (ssRNA) [16-mer ssRNA]
Kd (MUT-7 FL): 2.33 µM
Kd (EXD3 NTD-EXO(D399A)): 11.2 µM
Kd (EXD3 FL(D399A)): 1.86 µM
Kd (MUT-7 NTD-EXO): 18.7 µM

B2: MUT-16^584–724 (domain or fragment, Caenorhabditis elegans, UniProt O62011 584-724, looked up)
chain: KKKSESSATDTSNTPPVDTVNVALPTPVVESSSTTAAPSIPVSTRPEVVVPPENPAPLREVGNFYSKSNHDEDRRNVQLPFTPADTHKPIKVAPKEPVRNPLLKERPSANGFINRRLPSHPAPPPVNQSQPANQPMQTAVY
notes: numbers count on the longer isoform B0379.3a.1 (O62011); an untagged form was purified for CD; source: E. coli BL21(DE3) derivative; co-expressed with MBP-tagged MUT-8 constructs, in lysate; co-expressed with MUT-8^NTD and purified as complex; purified
Kd [2]: ~13 µM

Continued, values first:

binding result [1]: binds
B1: GST-tagged MUT-16^584–724 (domain or fragment, Caenorhabditis elegans, UniProt O62011 584-724, looked up)
chain: B2 chain
notes: numbers count on the longer isoform B0379.3a.1 (O62011); source: E. coli BL21(DE3) derivative, purified

binding result [1]: binds
B3: GST-tagged MUT-16^1–724 (domain or fragment, Caenorhabditis elegans, UniProt O62011 1-724, looked up)
chain: MSESDDDYPELDISDQYIDPLGIVVGPPPASYTETDREETPMQNRTEDDTNSYGNSSGEHDYDSYLDSGDDDFDVDAYYANDNMDEPPPETIPDNLIQNVIGRNDNADYDFSDASNPEIMKRDLQLFLSSSLLSNPLKFRSGYSSDELDDCLKSCMGYSLQVTAVLLLPPEIISQLPNDSKTEHAHALVRGGWLQSKEGAFFPVISDSERETVVSLMNGSEEQHKRQERKKKEADTFESEEKEIRTLLTFNMIAELLMAVRNEYSIRSVKYQILSTAYTNMVTGAAHANIFRKYKDILQLDPEKLWNNDWFKEYTNRGTLKKFLTTARFSEIVVSQANGKTVELYFRADDEGNRPVVLFTDEHIADVRNKWKTGNQRNQNYGSQGNYRAGGQRSDDRRGPQQRRNVIVPDPNYQPSTFAGGISNNADDDGSLQPTTSSHFNRNTDRSTSRPPRAPTSPVNRVMETDPLMGQGTSSGAPQRSAIPNPFGGAPALSRSTITNGNRGPSYGDRGERVQDVGDTTSDSEITSEGSYSDEDPEQKEIKRQRRKDKLKKKQERELRSREKHTKSKQQPPSKIETRFNTYKKKSESSATDTSNTPPVDTVNVALPTPVVESSSTTAAPSIPVSTRPEVVVPPENPAPLREVGNFYSKSNHDEDRRNVQLPFTPADTHKPIKVAPKEPVRNPLLKERPSANGFINRRLPSHPAPPPVNQSQPANQPMQTAVY
notes: numbers count on the longer isoform B0379.3a.1 (O62011); also called the longest MUT-16 construct; source: E. coli BL21(DE3) derivative, purified
